PMC12827253, “GADD45β inhibits RIPK3-mediated NF-κB activation by interfering with NEMO-RIPK1-RIPK3 interactions” (Cell Death Discovery, 2025)

Biological target: T1, human recombinant RIPK3 (human, UniProt Q9Y572 1-518)
T1 construct: RIPK3, human, bought recombinant protein; also called rhRIPK3; source: bought: Mybiosource cod; MBS1442585
Assay: BLI; rhRIPK3 immobilised on AR2G sensor (10 μg/mL in 10 mM NaAc pH 4.5); rhGADD45β as analyte, 3.1–100 nM; 25 mM Tris pH 7.5, 100 mM NaCl, 0.02% Tween 20, 0.1% BSA; 25 °C; 1:1 Langmuir model; apparent
Conditions: both partners purified

T1 sequence (Q9Y572 whole entry): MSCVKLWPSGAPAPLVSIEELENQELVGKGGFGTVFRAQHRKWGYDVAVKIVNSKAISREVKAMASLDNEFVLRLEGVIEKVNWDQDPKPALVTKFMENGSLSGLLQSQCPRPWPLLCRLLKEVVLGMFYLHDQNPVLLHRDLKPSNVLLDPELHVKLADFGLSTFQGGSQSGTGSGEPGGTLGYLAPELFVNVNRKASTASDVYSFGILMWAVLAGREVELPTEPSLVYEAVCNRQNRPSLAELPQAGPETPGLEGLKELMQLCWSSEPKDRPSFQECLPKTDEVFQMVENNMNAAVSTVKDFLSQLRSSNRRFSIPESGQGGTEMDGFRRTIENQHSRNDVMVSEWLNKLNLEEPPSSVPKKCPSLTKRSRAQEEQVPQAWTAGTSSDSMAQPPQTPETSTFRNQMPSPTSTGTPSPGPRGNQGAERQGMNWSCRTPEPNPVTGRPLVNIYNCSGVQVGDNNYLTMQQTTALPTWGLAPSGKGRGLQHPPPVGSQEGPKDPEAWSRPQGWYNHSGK

B1: recombinant human GADD45β (natural protein, UniProt O75293 1-160, looked up)
chain: MTLEELVACDNAAQKMQTVTAAVEELLVAAQRQDRLTVGVYESAKLMNVDPDSVVLCLLAIDEEEEDDIALQIHFTLIQSFCCDNDINIVRVSGMQRLAQLLGEPAETQGTTEARDLHCLLVTNPHTDAWKSHGLVEVASYCEESRGNNQWVPYISLQER
notes: GADD45β, human, recombinant; also called rhGADD45β; Growth Arrest and DNA Damage-inducible beta
B1 gave a Kd of 1.73 nM.
